For assay [1], the target named is purified αVβ3 integrin (UniProt P06756). As to the kind of experiment: antibody at 4 µg/ml added to 2 µg purified αVβ3 before [125I]-T4; native gel, band intensity.
Assay [2] shares this target. In words: antibody at 2 µg/ml added to 2 µg purified αVβ3 before [125I]-T4; native gel, band intensity.
The target is the same in assay [3]. As to the kind of experiment: antibody at 1 µg/ml added to 2 µg purified αVβ3 before [125I]-T4; native gel, band intensity.
For assay [4] the target is unchanged. As to the kind of experiment: antibody at 8 µg/ml added to purified αVβ3 30 min before [125I]-T4; native gel; the legend's value differs from the 59% of paragraph 377.
The target is the same in assay [5]. In words: antibody at 8 µg/ml added to 2 µg purified αVβ3 before [125I]-T4; native gel, band intensity.

purified αVβ3 integrin, sequence (P06756 31-1048 limits assumed, form in doubt, chain 1 of 2): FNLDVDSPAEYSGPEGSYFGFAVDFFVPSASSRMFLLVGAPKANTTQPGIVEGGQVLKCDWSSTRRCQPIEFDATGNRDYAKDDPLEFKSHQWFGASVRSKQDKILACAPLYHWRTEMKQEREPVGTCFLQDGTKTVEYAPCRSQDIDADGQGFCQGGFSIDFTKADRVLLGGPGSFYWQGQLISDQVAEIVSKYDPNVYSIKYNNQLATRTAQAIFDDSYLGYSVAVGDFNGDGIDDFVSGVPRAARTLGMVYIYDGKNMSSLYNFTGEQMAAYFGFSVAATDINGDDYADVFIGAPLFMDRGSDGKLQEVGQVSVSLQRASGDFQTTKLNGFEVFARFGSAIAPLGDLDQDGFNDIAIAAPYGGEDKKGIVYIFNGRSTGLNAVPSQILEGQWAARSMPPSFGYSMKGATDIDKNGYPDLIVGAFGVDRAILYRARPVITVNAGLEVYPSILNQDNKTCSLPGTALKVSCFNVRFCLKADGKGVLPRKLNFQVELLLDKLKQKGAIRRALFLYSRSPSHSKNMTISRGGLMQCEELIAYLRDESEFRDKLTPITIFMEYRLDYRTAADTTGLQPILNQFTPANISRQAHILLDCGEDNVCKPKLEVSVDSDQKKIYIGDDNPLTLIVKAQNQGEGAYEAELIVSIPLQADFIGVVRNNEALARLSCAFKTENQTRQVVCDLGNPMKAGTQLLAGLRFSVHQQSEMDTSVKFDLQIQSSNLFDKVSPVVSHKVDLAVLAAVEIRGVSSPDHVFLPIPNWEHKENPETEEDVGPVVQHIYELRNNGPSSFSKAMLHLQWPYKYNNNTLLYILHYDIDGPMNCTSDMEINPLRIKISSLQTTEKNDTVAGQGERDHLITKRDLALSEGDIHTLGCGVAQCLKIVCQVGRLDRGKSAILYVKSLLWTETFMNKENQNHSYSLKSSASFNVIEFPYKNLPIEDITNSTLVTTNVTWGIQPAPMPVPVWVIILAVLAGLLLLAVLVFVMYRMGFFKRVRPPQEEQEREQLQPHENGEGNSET
purified αVβ3 integrin, sequence (P05106 27-788 limits assumed, form in doubt, chain 2 of 2, further chain): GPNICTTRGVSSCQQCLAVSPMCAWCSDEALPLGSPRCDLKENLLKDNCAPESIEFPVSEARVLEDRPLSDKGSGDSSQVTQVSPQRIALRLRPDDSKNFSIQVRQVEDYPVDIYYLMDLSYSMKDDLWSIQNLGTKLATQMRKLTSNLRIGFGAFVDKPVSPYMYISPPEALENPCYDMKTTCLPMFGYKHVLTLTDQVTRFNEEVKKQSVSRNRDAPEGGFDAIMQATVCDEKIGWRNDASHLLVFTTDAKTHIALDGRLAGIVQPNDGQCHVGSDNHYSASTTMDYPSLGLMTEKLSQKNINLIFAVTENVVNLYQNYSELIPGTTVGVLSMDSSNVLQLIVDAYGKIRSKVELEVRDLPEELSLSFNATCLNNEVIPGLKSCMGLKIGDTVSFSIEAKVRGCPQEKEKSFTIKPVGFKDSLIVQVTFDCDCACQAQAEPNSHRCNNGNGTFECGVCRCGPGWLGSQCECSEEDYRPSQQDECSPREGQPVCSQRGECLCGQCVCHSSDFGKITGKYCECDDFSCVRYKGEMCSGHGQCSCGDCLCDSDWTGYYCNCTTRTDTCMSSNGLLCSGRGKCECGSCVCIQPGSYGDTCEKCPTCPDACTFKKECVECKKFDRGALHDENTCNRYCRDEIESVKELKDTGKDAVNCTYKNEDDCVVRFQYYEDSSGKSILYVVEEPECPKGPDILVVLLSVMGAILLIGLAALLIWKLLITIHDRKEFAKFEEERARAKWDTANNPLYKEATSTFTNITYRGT

For monoclonal antibody SC7312 to αVβ3, the percent reduction of T4 binding to αVβ3 with purified αVβ3 integrin [1] was found to be 47%; in the assay with purified αVβ3 integrin [2], 46%; in the assay with purified αVβ3 integrin [3] it was 20%; with purified αVβ3 integrin [4], 58%; in the assay with purified αVβ3 integrin [5], 59%.

On to monoclonal antibody LM609 to αVβ3, for which the percent decrease of band intensity (integrin-[125I]T4 complex) came to 63% in the assay with purified αVβ3 integrin [1], 64% with purified αVβ3 integrin [2] and 81% with purified αVβ3 integrin [5]. Also, in the assay with purified αVβ3 integrin [3], the percent reduction of integrin-[125I]T4 complex formation came out at 52%.
